Consider three molecules from publication PMC3471918 (PLoS ONE, 2012).

The term stoichiometry N denotes a count of units in the complex or per binding partner.

Common to all, as to assay: AUC; sedimentation velocity, 4°C, 40,000 rpm, 50 mM Tris pH 7.4, absorbance at 280 nm, c(s,ff0) distributions by SEDFIT corrected to 20,w; monomer, dimer and higher oligomers
In data set [1] the target is cysteine-free rat insulin degrading enzyme (all twelve cysteines converted to serines) (rat) (UniProt P35559).
Data set [2] deals with rat insulin degrading enzyme C904S (rat) (UniProt P35559).
Data set [3] deals with the molecule itself.

In the case of “cysteine-free rat insulin degrading enzyme (all twelve cysteines converted to serines) (from UniProt P35559 1-1019)”, the fold decrease in dimer content against wild type IDE in data set [1] is 2 fold.
With “rat insulin degrading enzyme C904S (from UniProt P35559 1-1019)”, the stoichiometry N in data set [2] came out at 2.

B1: rat insulin degrading enzyme (IDE), wild type (enzyme, UniProt P35559 1-1019, looked up)
chain: MNNPAIQRIEDHIVKSPEDKREYRGLELANGIKVLLISDPTTDKSSAALDVHIGSLSDPPNIPGLSHFCEHMLFLGTKKYPKENEYSQFLSEHAGSSNAFTSGEHTNYYFDVSHEHLEGALDRFAQFFLCPLFDASCKDREVNAVDSEHEKNVMNDAWRLFQLEKATGNPKHPFSKFGTGNKYTLETRPNQEGIDVREELLKFHSTYYSSNLMAICVLGRESLDDLTNLVVKLFSEVENKNVPLPEFPEHPFQEEHLKQLYKIVPIKDIRNLYVTFPIPDLQQYYKSNPGHYLGHLIGHEGPGSLLSELKSKGWVNTLVGGQKEGARGFMFFIINVDLTEEGLLHVEDIILHMFQYIQKLRAEGPQEWVFQECKDLNAVAFRFKDKERPRGYTSKIAGKLHYYPLNGVLTAEYLLEEFRPDLIDMVLDKLRPENVRVAIVSKSFEGKTDRTEQWYGTQYKQEAIPEDVIQKWQNADLNGKFKLPTKNEFIPTNFEILALEKDATPYPALIKDTAMSKLWFKQDDKFFLPKACLNFEFFSPFAYVDPLHCNMAYLYLELLKDSLNEYAYAAELAGLSYDLQNTIYGMYLSVKGYNDKQPILLKKITEKMATFEIDKKRFEIIKEAYMRSLNNFRAEQPHQHAMYYLRLLMTEVAWTKDELKEALDDVTLPRLKAFIPQLLSRLHIEALLHGNITKQAALGVMQMVEDTLIEHAHTKPLLPSQLVRYREVQLPDRGWFVYQRRNEVHNNCGIEIYYQTDMQSTSENMFLELFCQIISEPCFNTLRTKEQLGYIVFSGPRRANGIQGLRFIIQSEKPPHYLESRVEAFLITMEKAIEDMTEEAFQKHIQALAIRRLDKPKKLSAECAKYWGEIISQQYNYDRDNIEVAYLKTLSKDDIIKFYKEMLAVDAPRRHKVSVHVLAREMDSCPVVGEFPSQNDINLSEAPPLPQPEVIHNMTEFKRGLPLFPLVKPHINFMAAKL
notes: Insulin degrading enzyme, rat; EC 3.4.24.56; also called wild type IDE; native enzyme; source: Sf9 insect cells, purified (HIS-select Ni-NTA agarose)
Consider B1, for which, in data set [3], the “stoichiometry N” value stood at 2.
